Experimental data as given in PMC3289678.

Legend:
[1] = DiFMUP assay with 70 mM L-(+)-tartrate; settings: glycan lost; control: wild-type r-hPAP
[2] = DiFMUP phosphatase assay, crude cell lysates; settings: glycan lost; control: wild-type r-hPAP
[3] = DiFMUP phosphatase assay, crude secreted fractions; settings: glycan lost; control: wild-type r-hPAP
[4] = anti-hPAP western blot, lysates and secreted fractions; settings: glycan lost; control: wild-type r-hPAP
[5] = DiFMUP phosphatase assay after 24 h PNGase F; settings: glycan lost; control: untreated r-hPAP

Protein | other: inhibition by L-(+)-tartrate [1] | expression_or_secretion [4] | further results
secretory human prostatic acid phosphatase (hPAP, S-PAP): N62Q (protein) parent chain: MRAAPLLLARAASLSLGFLFLLFFWLDRSVLAKELKFVTLVFRHGDRSPIDTFPTDPIKESSWPQGFGQLTQLGMEQHYELGEYIRKRYRKFLNESYKHEQVYIRSTDVDRTLMSAMTNLAALFPPEGVSIWNPILLWQPIPVHTVPLSEDQLLYLPFRNCPRFQELESETLKSEEFQKRLHPYKDFIATLGKLSGLHGQDLFGIWSKVYDPLYCESVHNFTLPSWATEDTMTKLRELSELSLLSLYGIHKQKEKSRLQGGVLVNEILNHMKRATQIPSYKKLIMYSAHDTTVSGLQMALDVYNGLLPPYASCHLTELYFEKGEYFVEMYYRNETQHEPYPLMLPGCSPSCPLERFAELVGPVIPQDWSTECMTTNSHQGTEDSTD | no change | no change | enzymatic_activity, other: RFU/µg total protein at 10 min [2]: decreases, 7.8 (0.29) vs 12.2 (0.28); enzymatic_activity, other: RFU/µg total protein at 10 min [3]: decreases, 67.0 (2.78) vs 109.5 (1.44)
secretory human prostatic acid phosphatase (hPAP, S-PAP): N188Q (protein) parent chain: MRAAPLLLARAASLSLGFLFLLFFWLDRSVLAKELKFVTLVFRHGDRSPIDTFPTDPIKESSWPQGFGQLTQLGMEQHYELGEYIRKRYRKFLNESYKHEQVYIRSTDVDRTLMSAMTNLAALFPPEGVSIWNPILLWQPIPVHTVPLSEDQLLYLPFRNCPRFQELESETLKSEEFQKRLHPYKDFIATLGKLSGLHGQDLFGIWSKVYDPLYCESVHNFTLPSWATEDTMTKLRELSELSLLSLYGIHKQKEKSRLQGGVLVNEILNHMKRATQIPSYKKLIMYSAHDTTVSGLQMALDVYNGLLPPYASCHLTELYFEKGEYFVEMYYRNETQHEPYPLMLPGCSPSCPLERFAELVGPVIPQDWSTECMTTNSHQGTEDSTD | no change | decreases | –
secretory human prostatic acid phosphatase (hPAP, S-PAP): N62Q, N188Q (protein) parent chain: MRAAPLLLARAASLSLGFLFLLFFWLDRSVLAKELKFVTLVFRHGDRSPIDTFPTDPIKESSWPQGFGQLTQLGMEQHYELGEYIRKRYRKFLNESYKHEQVYIRSTDVDRTLMSAMTNLAALFPPEGVSIWNPILLWQPIPVHTVPLSEDQLLYLPFRNCPRFQELESETLKSEEFQKRLHPYKDFIATLGKLSGLHGQDLFGIWSKVYDPLYCESVHNFTLPSWATEDTMTKLRELSELSLLSLYGIHKQKEKSRLQGGVLVNEILNHMKRATQIPSYKKLIMYSAHDTTVSGLQMALDVYNGLLPPYASCHLTELYFEKGEYFVEMYYRNETQHEPYPLMLPGCSPSCPLERFAELVGPVIPQDWSTECMTTNSHQGTEDSTD | no change | decreases | –
secretory human prostatic acid phosphatase (hPAP, S-PAP): N188Q, N301Q (protein) parent chain: MRAAPLLLARAASLSLGFLFLLFFWLDRSVLAKELKFVTLVFRHGDRSPIDTFPTDPIKESSWPQGFGQLTQLGMEQHYELGEYIRKRYRKFLNESYKHEQVYIRSTDVDRTLMSAMTNLAALFPPEGVSIWNPILLWQPIPVHTVPLSEDQLLYLPFRNCPRFQELESETLKSEEFQKRLHPYKDFIATLGKLSGLHGQDLFGIWSKVYDPLYCESVHNFTLPSWATEDTMTKLRELSELSLLSLYGIHKQKEKSRLQGGVLVNEILNHMKRATQIPSYKKLIMYSAHDTTVSGLQMALDVYNGLLPPYASCHLTELYFEKGEYFVEMYYRNETQHEPYPLMLPGCSPSCPLERFAELVGPVIPQDWSTECMTTNSHQGTEDSTD | – | abolishes | –
secretory human prostatic acid phosphatase (hPAP, S-PAP): N62Q, N188Q, N301Q (protein) parent chain: MRAAPLLLARAASLSLGFLFLLFFWLDRSVLAKELKFVTLVFRHGDRSPIDTFPTDPIKESSWPQGFGQLTQLGMEQHYELGEYIRKRYRKFLNESYKHEQVYIRSTDVDRTLMSAMTNLAALFPPEGVSIWNPILLWQPIPVHTVPLSEDQLLYLPFRNCPRFQELESETLKSEEFQKRLHPYKDFIATLGKLSGLHGQDLFGIWSKVYDPLYCESVHNFTLPSWATEDTMTKLRELSELSLLSLYGIHKQKEKSRLQGGVLVNEILNHMKRATQIPSYKKLIMYSAHDTTVSGLQMALDVYNGLLPPYASCHLTELYFEKGEYFVEMYYRNETQHEPYPLMLPGCSPSCPLERFAELVGPVIPQDWSTECMTTNSHQGTEDSTD | – | abolishes | –
secretory human prostatic acid phosphatase (hPAP, S-PAP): N301Q (protein) parent chain: MRAAPLLLARAASLSLGFLFLLFFWLDRSVLAKELKFVTLVFRHGDRSPIDTFPTDPIKESSWPQGFGQLTQLGMEQHYELGEYIRKRYRKFLNESYKHEQVYIRSTDVDRTLMSAMTNLAALFPPEGVSIWNPILLWQPIPVHTVPLSEDQLLYLPFRNCPRFQELESETLKSEEFQKRLHPYKDFIATLGKLSGLHGQDLFGIWSKVYDPLYCESVHNFTLPSWATEDTMTKLRELSELSLLSLYGIHKQKEKSRLQGGVLVNEILNHMKRATQIPSYKKLIMYSAHDTTVSGLQMALDVYNGLLPPYASCHLTELYFEKGEYFVEMYYRNETQHEPYPLMLPGCSPSCPLERFAELVGPVIPQDWSTECMTTNSHQGTEDSTD | – | abolishes | –
secretory human prostatic acid phosphatase (hPAP, S-PAP): PNGase F (protein) parent chain: MRAAPLLLARAASLSLGFLFLLFFWLDRSVLAKELKFVTLVFRHGDRSPIDTFPTDPIKESSWPQGFGQLTQLGMEQHYELGEYIRKRYRKFLNESYKHEQVYIRSTDVDRTLMSAMTNLAALFPPEGVSIWNPILLWQPIPVHTVPLSEDQLLYLPFRNCPRFQELESETLKSEEFQKRLHPYKDFIATLGKLSGLHGQDLFGIWSKVYDPLYCESVHNFTLPSWATEDTMTKLRELSELSLLSLYGIHKQKEKSRLQGGVLVNEILNHMKRATQIPSYKKLIMYSAHDTTVSGLQMALDVYNGLLPPYASCHLTELYFEKGEYFVEMYYRNETQHEPYPLMLPGCSPSCPLERFAELVGPVIPQDWSTECMTTNSHQGTEDSTD | – | – | enzymatic_activity [5]: no change
secretory human prostatic acid phosphatase (hPAP, S-PAP): N62Q, N301Q (protein) parent chain: MRAAPLLLARAASLSLGFLFLLFFWLDRSVLAKELKFVTLVFRHGDRSPIDTFPTDPIKESSWPQGFGQLTQLGMEQHYELGEYIRKRYRKFLNESYKHEQVYIRSTDVDRTLMSAMTNLAALFPPEGVSIWNPILLWQPIPVHTVPLSEDQLLYLPFRNCPRFQELESETLKSEEFQKRLHPYKDFIATLGKLSGLHGQDLFGIWSKVYDPLYCESVHNFTLPSWATEDTMTKLRELSELSLLSLYGIHKQKEKSRLQGGVLVNEILNHMKRATQIPSYKKLIMYSAHDTTVSGLQMALDVYNGLLPPYASCHLTELYFEKGEYFVEMYYRNETQHEPYPLMLPGCSPSCPLERFAELVGPVIPQDWSTECMTTNSHQGTEDSTD | – | abolishes | –
